± gives the uncertainty stated by the source.

First the molecules themselves.
B1: Friend leukemia integration 1 transcription factor, residues 116 to 197; numbered along this chain, Q01543 (parent)
chain: NMTTNERRVIVPADPTLWTQEHVRQWLEWAIKEYSLMEIDTSFFQNMDGKELCKMNKEDFLRATTLYNTEVLLSHLSYLRES

The series covers variants of B1. Briefly: abundance fitness (aPCA) (normalised: wild type 0, dead -1); higher = more abundant; growth selection in yeast, the domain comes from the species named. The following applies: Homo sapiens.
On to NMTTNERRVIVPADPTLWTQEHVRQWLEWAIKEYSLMEIDTSFPQNMDGKELCKMNKEDFLRATTLYNTEVLLSHLSYLRES [F44P], for which the abundance fitness is -0.744 ± 0.11. With NMTTNERRVIVPADPTLWTQEHVRQWLESAIKEYSLMEIDTSFFQNMDGKELCKMNKEDFLRATTLYNTEVLLSHLSYLRES [W29S], the abundance fitness worked out at 0.112 ± 0.084. For NMTTNERRVIVPADPTLWTQEHVRQWLEWAIKEYSLMEIDTSFFQNMDGKELCKMNKEDFLRATTLYNTENLLSHLSYLRES [V71N], the abundance fitness was -0.391 ± 0.23. With NMTTNERRVIVPADPTLWTQEHVRQWLEWAIKEYSLMEIDTSFFQNMDGKELCKMNKEDFLRATTLYNTEWLLSHLSYLRES [V71W], the abundance fitness was -0.047 ± 0.079. In the case of NMTTNERRVIVPADPTLWTQEHVRQWLEWAIKEYSLMEIDTSFFQNMDGKELCKMNKEDFLRATTLYNTEGLLSHLSYLRES [V71G], the abundance fitness was -0.677 ± 0.13. Regarding NMTTNERRVIVPADPTLWTQEHVRQWLEWAIKEYSLMEIDTSFFQNMDGKELCKMNKEDFLRATTLYNTEALLSHLSYLRES [V71A], the abundance fitness is -0.006 ± 0.086. For NMCTNERRVIVPADPTLWTQEHVRQWLEWAIKEYSLMEIDTSFFQNMDGKELCKMNKEDFLRATTLYNTEVLLSHLSYLRES [T3C], the abundance fitness amounted to 0.009 ± 0.2.

For NMQTNERRVIVPADPTLWTQEHVRQWLEWAIKEYSLMEIDTSFFQNMDGKELCKMNKEDFLRATTLYNTEVLLSHLSYLRES [T3Q], the abundance fitness is -0.136 ± 0.12. As for NMYTNERRVIVPADPTLWTQEHVRQWLEWAIKEYSLMEIDTSFFQNMDGKELCKMNKEDFLRATTLYNTEVLLSHLSYLRES [T3Y], the abundance fitness was -0.201 ± 0.44. Turning to NMTTNERRVIVPADPLLWTQEHVRQWLEWAIKEYSLMEIDTSFFQNMDGKELCKMNKEDFLRATTLYNTEVLLSHLSYLRES [T16L], the abundance fitness was -0.108 ± 0.089. With NMTTNERRVIVPADPTLWTQEHVRQWLEWAIKEYHLMEIDTSFFQNMDGKELCKMNKEDFLRATTLYNTEVLLSHLSYLRES [S35H] the figure was -0.132 ± 0.19; with NMTTNERRVIVPADPTLWTQEHVRQWLEWAIKEYSLMEIDTSFFQNMDGKEVCKMNKEDFLRATTLYNTEVLLSHLSYLRES [L52V], -0.192 ± 0.071. In the case of NMTTNERRVIVPADPTLWTQEHVRQWLEWAIKEYSLMEIDTSFFQNMDGKELCKMNKEDFLRATDLYNTEVLLSHLSYLRES [T65D], the abundance fitness is -0.162 ± 0.14. On to NMTTNERRVIVPADPTLWTQEHVRQWLEWAIKEYSLMEIDTSFFQNMDGKELCKMNKEDFLRATTLQNTEVLLSHLSYLRES [Y67Q], for which the abundance fitness came out at 0.059 ± 0.092.

For the variant NMTTNERRVIVPADPTLWTQEHVRQWLEWAIKEYSLMEIDTSFFQNMDGKELCKMNKEDFLRATTLTNTEVLLSHLSYLRES [Y67T], the abundance fitness is -0.006 ± 0.047. NMTTNERRVIVPADPTLWTQEHVRQWLEWAIKEYSLMEIDTSFFQNMDGKELCKMNKEDFLRARTLYNTEVLLSHLSYLRES [T64R]: the abundance fitness is -0.807 ± 0.075. With NMTTNERRVIVPADRTLWTQEHVRQWLEWAIKEYSLMEIDTSFFQNMDGKELCKMNKEDFLRATTLYNTEVLLSHLSYLRES [P15R], the abundance fitness was -0.92 ± 0.096. With NMTTNERRVIVPADPTLWTQEHVRQWLEWAIKEYSLMEIDTSFFQNMSGKELCKMNKEDFLRATTLYNTEVLLSHLSYLRES [D48S] the figure was -0.013 ± 0.074; with NMTTNERRVIVPADPTLWTQEHVRQKLEWAIKEYSLMEIDTSFFQNMDGKELCKMNKEDFLRATTLYNTEVLLSHLSYLRES [W26K], -0.813 ± 0.26. With NMTTNERRVIVPADPTLWTQEHVRQWLEWAWKEYSLMEIDTSFFQNMDGKELCKMNKEDFLRATTLYNTEVLLSHLSYLRES [I31W] the figure was -0.48 ± 0.11; with NMTTNERRVIVPADPTLWTQEHVRQWLEWAIKEYSLMEIDTSFFQNMDSKELCKMNKEDFLRATTLYNTEVLLSHLSYLRES [G49S], -0.943 ± 0.16. With NMTTNERRVIVPADPTLWTQEIVRQWLEWAIKEYSLMEIDTSFFQNMDGKELCKMNKEDFLRATTLYNTEVLLSHLSYLRES [H22I], the abundance fitness was -0.201 ± 0.3. Turning to NMTTNERRVIVPADPTLWTQEHVRQWLEWAIKEYSLMEIDTSFFQNMDGKELCKMNKFDFLRATTLYNTEVLLSHLSYLRES [E58F], the abundance fitness is -0.228 ± 0.23. For the variant NMTTNERRVIVPADPTLWTQEHVRQWLEWAIKEYSLMEIDTSFFQNMDGKELCKMNKEDFLWATTLYNTEVLLSHLSYLRES [R62W], the abundance fitness is -0.325 ± 0.12. For NMTTNERRVIVPADPTLWTQEHVRQWLEWAIKEYSLMEIDTSFFQNMDGKELCHMNKEDFLRATTLYNTEVLLSHLSYLRES [K54H], the abundance fitness was -0.494 ± 0.26. For the variant NMTTNERRVIVPADPTLWTQEHVRQWLEWAIKEYSLMEIDTSFFQNMDGKELCYMNKEDFLRATTLYNTEVLLSHLSYLRES [K54Y], the abundance fitness was -0.359 ± 0.16. For the variant NMTTNERRVIVPADPTLWTCEHVRQWLEWAIKEYSLMEIDTSFFQNMDGKELCKMNKEDFLRATTLYNTEVLLSHLSYLRES [Q20C], the abundance fitness was -0.176 ± 0.29. As to NMTTNERRVIVPADPTLWTYEHVRQWLEWAIKEYSLMEIDTSFFQNMDGKELCKMNKEDFLRATTLYNTEVLLSHLSYLRES [Q20Y], the abundance fitness was -0.109 ± 0.4. NMTTNERRVIVPAFPTLWTQEHVRQWLEWAIKEYSLMEIDTSFFQNMDGKELCKMNKEDFLRATTLYNTEVLLSHLSYLRES [D14F]: the abundance fitness was -0.517 ± 0.22. As to NMTTNERRVIVPADPTLWTQEHVRQWLEWAIKEYSLMEIDTSFFQNMDGKELCKMNKEDFLRATTYYNTEVLLSHLSYLRES [L66Y], the abundance fitness is -0.036 ± 0.11. As for NMTTNERRVIVPADPTLWTQEHVRQWLEWAIKEYSLMEIDTSFFQNMDGKELCKMNKEDFLRATTQYNTEVLLSHLSYLRES [L66Q], the abundance fitness was -0.066 ± 0.12. For NMTTNERRVIVPADPTLWTQEHVRQWLEWAIKEYSLMSIDTSFFQNMDGKELCKMNKEDFLRATTLYNTEVLLSHLSYLRES [E38S] the value was -0.068 ± 0.073; for NMTTNERRVIVPADPTLWTQEHVRQWLEWAIKEYSLMIIDTSFFQNMDGKELCKMNKEDFLRATTLYNTEVLLSHLSYLRES [E38I], -0.32 ± 0.052; for NMTTNERRVIVPADPTLWTQEHVRQWLEWAIKEYSLMWIDTSFFQNMDGKELCKMNKEDFLRATTLYNTEVLLSHLSYLRES [E38W], -0.349 ± 0.11.

The values above are taken from the Human Domainome abundance scans (Beltran et al. 2025).
